Data published in patent publication US5854049.

How the values were obtained:
[1] = target: rSK (fusion protein with maltose binding protein linked to the amino terminus of nSK) (Streptococcus equisimilis (SK part))
[2] = target: native, full-length mature SK protein derived from Streptococcus equisimilus (nSK) (Streptococcus equisimilus)
[3] = target: purified human Glu-plasminogen (American Diagnostica, 98% Glu-type plasminogen) (human) (UniProt P00747)
[4] = target: purified human Glu-plasminogen (American Diagnostica, 98% Glu-type plasminogen) (human) (UniProt P00747); remark: listed apart in the source

Substance	cleavage of SK by plasmin after mixing with excess Glu-plasminogen (immunoblot with monoclonal anti-SK antibodies) [1]	cleavage of SK by plasmin after mixing with excess Glu-plasminogen (immunoblot with monoclonal anti-SK antibodies) [2]	amidolytic kinetic parameters of the SK-PAC on S2251: Km (µM), Kcat (S^-1), kcat/Km (µM^-1 S^-1) [3]	lag phase of plasminogen activation (S2251 hydrolysis, absorption at 405 nm, 21° C.) [4]
plasmin (from UniProt P00747) (enzyme)	1 min	< 30 s		
native, full-length mature SK protein derived from Streptococcus equisimilus (nSK)			0.226 µM^-1 S^-1	< 50 s
